Test results taken from patent US20210395393A1 (EMSTOPA, published 2021).
Each block holds one binder with its values, some of them ahead of it.

Experiments:
[1] = biological target: T1, recombinant human tPA (rh-tPA: abcam ab92637) (human, UniProt P00750 36-562); assay: binding ELISA, plate coated with human tPA
T1 construct: Bought protein; also called tPA antigen
Excerpt: (§1) Binding activity of the purified TPAi-1 RHP/RKA F(ab′)2 to the human tPA antigen was compared to that of the purified TPAi-1 RHP/RKA whole IgG1 antibody and RHP/RKA Fab in a binding ELISA. […] The EC50 values for the IgG1 and Fab are in agreement with those seen in earlier experiments. There is a consistent 4-fold difference in avidity between these two formats.

[2] = biological target: T1, recombinant human tPA (rh-tPA: abcam …); assay: binding ELISA, plate coated with human tPA; Fab as Expi293 conditioned medium
Excerpt: (§2) Binding activity of the TPAi-1 RHP/RKA Fab to the human tPA antigen was compared to that of the purified TPAi-1 RHP/RKA antibody in a binding ELISA. […] Following purification of TPAi-1 RHP/RKA Fab from a large scale culture, its binding to human tPA was reconfirmed by ELISA (FIG. 23). In this assay, plateauing of both binding curves was more apparent.

[3] = biological target: T1, recombinant human tPA (rh-tPA: abcam …); assay: binding ELISA, plate coated with human tPA; reference TPAi-1 RHP/RKA IgG1
Excerpt: as §1

[4] = biological target: T1, recombinant human tPA (rh-tPA: abcam …); assay: cell-based or functional assay
[5] = biological target: T1, recombinant human tPA (rh-tPA: abcam …); assay: binding ELISA, plate coated with human tPA; reference TPAi-1 RHP/RKA Fab
Excerpt: as §2

[6] = biological target: T1, recombinant human tPA (rh-tPA: abcam …); assay: binding ELISA to human tPA after serum incubation
Method: Purified samples of humanised antibodies TPAi-1 RHE/RKA and RHP/RKA were incubated in mouse, human and cynomolgus serum (4.10.1). The binding abilities of the antibodies after 29 days incubation were measured by binding ELISA to human tPA. For each antibody, one ELISA plate compared the binding of the 4° C. control sample to samples incubated at 37° C. in PBS and human serum. A second ELISA plate compared the binding of the 4° C. control sample to samples incubated at 37° C. in mouse and cynomolgus serum. […] Therefore the TPAi-1 RHE/RKA and RHP/RKA antibodies retained their binding capabilities on incubation in mouse, human and cynomolgus serum for 29 days.

T1 sequence (P00750 36-562 limits assumed): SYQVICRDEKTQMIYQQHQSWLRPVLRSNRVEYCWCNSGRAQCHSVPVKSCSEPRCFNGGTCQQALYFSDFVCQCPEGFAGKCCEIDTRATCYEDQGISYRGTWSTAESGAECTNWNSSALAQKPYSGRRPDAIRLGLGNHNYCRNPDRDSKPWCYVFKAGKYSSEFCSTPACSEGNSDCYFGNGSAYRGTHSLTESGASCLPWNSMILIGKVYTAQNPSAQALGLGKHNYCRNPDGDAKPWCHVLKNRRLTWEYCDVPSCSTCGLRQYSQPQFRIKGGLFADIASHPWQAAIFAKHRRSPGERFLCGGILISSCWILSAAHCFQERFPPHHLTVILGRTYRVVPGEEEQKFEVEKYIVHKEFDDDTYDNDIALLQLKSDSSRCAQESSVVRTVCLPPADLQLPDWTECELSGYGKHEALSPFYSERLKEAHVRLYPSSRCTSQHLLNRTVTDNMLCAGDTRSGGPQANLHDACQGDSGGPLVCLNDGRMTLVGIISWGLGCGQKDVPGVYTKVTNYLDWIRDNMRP

EC50 [1]: 1.68 nM | EC50 [2]: 1.15 nM | fold difference in avidity between IgG1 and Fab [3]: 4 fold | inhibition of human plasma clot lysis (t-PA 1.5 nM, A405 nm turbidity) [4]: ~2 fold (amount against TPAi-1 RHP/RKA)
B1: TPAi-1 RHP/RKA Fab (Fab, V domains shown)
VH: QVQLVQSGAEVKKPGASVKVSCKASGNTSYWINWVRQATGQGLEWMGRIDPGGGSTGYAQKFQGRVTMTRDTSISTAYMELSSLRSEDTAVYYCASYYYAMAYWGQGTLVTVSS
VL: DVVMTQSPLSLPVTPGEPASISCRSSQSIVHSNGNTYLDWYLQKPGQSPQLLIYKVSNRASGVPDRFSGSGSGTDFTLKISRVEAEDVGVYYCFQGSHVPWTFGGGTKVEIK
notes: Recombinant Fab: RHP variable region in pHuG1_Fab vector with RKA in pHuK, expressed in Expi293 cells; also called TPAi-1 RHP/PKA Fab; humanised Fab

EC50 [1]: 0.379 nM
B2: TPAi-1 RHP/RKA F(ab')2 (other)
VH: QVQLVQSGAEVKKPGASVKVSCKASGNTSYWINWVRQATGQGLEWMGRIDPGGGSTGYAQKFQGRVTMTRDTSISTAYMELSSLRSEDTAVYYCASYYYAMAYWGQGTLVTVSS
VL: DVVMTQSPLSLPVTPGEPASISCRSSQSIVHSNGNTYLDWYLQKPGQSPQLLIYKVSNRASGVPDRFSGSGSGTDFTLKISRVEAEDVGVYYCFQGSHVPWTFGGGTKVEIK
notes: F(ab')2 made by pepsin digestion of TPAi-1 RHP/RKA IgG1 kappa and gel filtration

EC50 [1]: 0.475 nM | plateau A650 of the binding curve against the plateau of the Fab curve [5]: ~1.4 fold
B3: TPAi-1 RHP/RKA (antibody, V domains shown)
VH: QVQLVQSGAEVKKPGASVKVSCKASGNTSYWINWVRQATGQGLEWMGRIDPGGGSTGYAQKFQGRVTMTRDTSISTAYMELSSLRSEDTAVYYCASYYYAMAYWGQGTLVTVSS
VL: DVVMTQSPLSLPVTPGEPASISCRSSQSIVHSNGNTYLDWYLQKPGQSPQLLIYKVSNRASGVPDRFSGSGSGTDFTLKISRVEAEDVGVYYCFQGSHVPWTFGGGTKVEIK
notes: Human IgG1 kappa (pHuG1 / pHuK vectors); also called humanised TPAi-1 (RHP/RKA); humanized TPAi-1

binding result [6]: binds
B4: TPAi-1 RHE/RKA (antibody, V domains shown)
VH: QVQLVQSGAEVKKPGASVKVSCKASGNTSYWINWVRQATGQGLEWMGRIDPGGGSTGYAQKFQGRVTMTRNTSISTAYMELSSLRSEDTAVYYCASYYYAMAYWGQGTLVTVSS
VL: DVVMTQSPLSLPVTPGEPASISCRSSQSIVHSNGNTYLDWYLQKPGQSPQLLIYKVSNRASGVPDRFSGSGSGTDFTLKISRVEAEDVGVYYCFQGSHVPWTFGGGTKVEIK
notes: Human IgG1 kappa
